According to article PMC3958346, “Clearance Kinetics and Matrix Binding Partners of the Receptor for Advanced Glycation End Products” (PLoS ONE, 2014):
Values joined by “and” are separate entries in the source; they are usually repeats but may differ in a detail not shown here. Identical values can stand only once.

Key:
Test in all cases: BLI; ForteBIO Octet; purified mouse sRAGE conjugated to amine-reactive sensor tips, matrix protein in solution in varying concentrations; 1800 s association, dissociation in PBS; fit to the 1:1 Langmuir model; constants printed for each analyte concentration
Conditions in all cases: both partners purified
Laminin = target: Laminin
Collagen IV = Collagen IV (Sigma product, species and catalogue number not printed (human placenta or mouse EHS are both likely). Common alpha1(IV)2 alpha2(IV) heterotrimer taken by convention, 7S domain kept; hydroxyproline, h)
Collagen I = Collagen I (Sigma product, species and catalogue number not printed (could be rat or bovine). Natural alpha1(I)2 alpha2(I) heterotrimer taken by convention, propeptides removed; hydroxyproline, hydroxylysine, gly)

B1: Mouse soluble RAGE (soluble receptor for advanced glycation end products) (natural protein, UniProt Q62151-1 22-330, looked up)
chain: GGQNITARIGEPLVLSCKGAPKKPPQQLEWKLNTGRTEAWKVLSPQGGPWDSVARILPNGSLLLPATGIVDEGTFRCRATNRRGKEVKSNYRVRVYQIPGKPEIVDPASELTASVPNKVGTCVSEGSYPAGTLSWHLDGKLLIPDGKETLVKEETRRHPETGLFTLRSELTVIPTQGGTHPTFSCSFSLGLPRRRPLNTAPIQLRVREPGPPEGIQLLVEPEGGIVAPGGTVTLTCAISAQPPPQVHWIKDGAPLPLAPSPVLLLPEVGHEDEGTYSCVATHPSHGPQESPPVSIRVTETGDEGPAEGS
notes: Mouse soluble RAGE, residues 22-330, signal peptide cleaved off; mass 35742.30 Da; mouse membrane RAGE has a published length of 402 (NP_031451.2); Native protein from tissue; Coupled to amine-reactive sensor tips in one orientation, in solution in the other; also called sRAGE; mouse sRAGE; source: endotoxin removed with Detoxi-Gel polymyxin B resin
B1 was tested, and the koff (Laminin) was 0.000191 s⁻¹ and 0.000102 s⁻¹ and 8.02e-05 s⁻¹ and 0.000108 s⁻¹, the kon (Laminin) was 75400 M⁻¹ s⁻¹ and 106000 M⁻¹ s⁻¹ and 136000 M⁻¹ s⁻¹ and 171000 M⁻¹ s⁻¹ and the Kd (Collagen IV) was 2.57 nM and 3.59 nM and 4.81 nM. The koff (Collagen IV) was 6.26e-05 s⁻¹ and 7.72e-05 s⁻¹ and 8.1e-05 s⁻¹, the kon (Collagen IV) was 24400 M⁻¹ s⁻¹ and 21500 M⁻¹ s⁻¹ and 16700 M⁻¹ s⁻¹ and the Kd (Collagen I) was 3.51 nM and 1.62 nM and 1.84 nM.
